Patent publication US20040258656, “High affinity TGFbeta nucleic acid ligands and inhibitors” (published 2004)
Changes are numbered by the printed parent chain.

T1: TGFβ2 (transforming growth factor beta 2) (Homo sapiens, UniProt P61812 SEQ:1-112)
T1 sequence: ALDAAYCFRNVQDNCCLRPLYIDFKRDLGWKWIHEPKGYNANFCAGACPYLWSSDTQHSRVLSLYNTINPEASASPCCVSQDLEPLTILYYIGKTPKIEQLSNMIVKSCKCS

B1: 8.48 (ssRNA)
RNA: GGGAGGACGAUGCGGAAGUAACGUUGAAGUAAAAUUCGUUCUCUCGGUAUUGGCCAGACGACUCGCCCGA
modifications: 2'-F C and U; 2'-OH A and G
B2: 8.6 (ssRNA)
RNA: GGGAGGACGAUGCGGAAACCAAAAGACCACAUCUCCAUACUCACGCUCUGCCCCAGACGACUCGCCCGA
modifications: 2'-F C and U; 2'-OH A and G
B3: 8.8 (ssRNA)
RNA: GGGAGGACGAUGCGGAUAGAUCGGUCCGAUAAGUCUUUCAUCUUUACCUGGCCCCCAGACGACUCGCCCGA
modifications: 2'-F C and U; 2'-OH A and G
B4: 8.35 (ssRNA)
RNA: GGGAGGACGAUGCGGAUCCUAUCCUCUGAAUAUCAUUAAAUCAUCUUCUCCGCCCCAGACGACUCGCCCGA
modifications: 2'-F C and U; 2'-OH A and G
B5: 8.2 (ssRNA)
RNA: GGGAGGACGAUGCGGAAGUAACGUUUAAGUAAAAUUCGUUCUCUCGGUAUUUGGCCAGACGACUCGCCCGA
modifications: 2'-F C and U; 2'-OH A and G
B6: 8.9 (ssRNA)
RNA: B5 RNA with U26G
modifications: 2'-F C and U; 2'-OH A and G
B7: 8.3 (ssRNA)
RNA: B5 RNA with U26G, U48C
modifications: 2'-F C and U; 2'-OH A and G
B8: 8.20 (ssRNA)
RNA: GGGAGGACGAUGCGGUCUCAACGAAGAACAUCGUUGGAUACUGUUUGUCCCGCCCCAGACGACUCGCCCGA
modifications: 2'-F C and U; 2'-OH A and G
B9: 8.5 (ssRNA)
RNA: GGGAGGACGAUGCGGUCCUAACCAUCACAAUCUCAAUUCUUAUAUUUUCCCGCCCCAGACGACUCGCCCGA
modifications: 2'-F C and U; 2'-OH A and G
B10: 8.12 (ssRNA)
RNA: GGGAGGACGAUGCGGUCCAUCAACAAUCUUAUCAUUAUGUUUUUCCUUCCCGCCCCAGACGACUCGCCCGA
modifications: 2'-F C and U; 2'-OH A and G
B11: 8.18 (ssRNA)
RNA: GGGAGGACGAUGCGGUCUACCCUUUAGCAGUAUUUGUUUCCAUCGUUGUUUGCCCCAGACGACUCGCCCGG
modifications: 2'-F C and U; 2'-OH A and G
B12: 8.23 (ssRNA)
RNA: GGGAGGACGAUGCGGAGACAUCUUUGUCUCGAUUAGUCAUGUUCCUUACCUGCCCCAGACGACUCGCCCGA
modifications: 2'-F C and U; 2'-OH A and G
B13: 8.40 (ssRNA)
RNA: GGGAGGACGAUGCGGCCCAUUAGUCCUCAUUAGUCCCCUGUGCCCCAGACGACUCGCCCGA
modifications: 2'-F C and U; 2'-OH A and G
B14: 8.28 (ssRNA)
RNA: GGGAGGACGAUGCGGAUGAGACCUAAUCAUCGAUCCGCUAUCUAAAACCUCACCCCAGACGACUCGCCCGA
modifications: 2'-F C and U; 2'-OH A and G
B15: NX22427 (ssRNA)
RNA: GGGGUUAUUACAGAGUCUGUAUAGCUGUACCC
modifications: 2'-F C and U; 2'-OMe at lowercase a,g of gg-ggUUAUUaCagagUCUGUAUAgCUgUaC-CC; 3'-3' dT
B16: NX22356 (ssRNA)
RNA: GGAGGUUAUUACAGAGUCUGUAUAGCUGUACUCC
modifications: 2'-F C and U; 2'-OMe at lowercase a,g of ggagGUUAUUACAGAGUCUGUAUAGCuGUACUCC; 3'-3' dT
B17: NX22357 (ssRNA)
RNA: B16 RNA
modifications: 2'-F C and U; 2'-OMe at lowercase a,g of GGAGgUUaUUaCAGAGUCUGUAUAGCUGUACUCC; 3'-3' dT
B18: NX22377 (ssRNA)
RNA: B16 RNA
modifications: 2'-F C and U; 2'-OMe at lowercase a,g of ggaggUUaUUaCAGAGUCUGUAUAgCUgUaCucc; 3'-3' dT
B19: NX22360 (ssRNA)
RNA: B16 RNA
modifications: 2'-F C and U; 2'-OMe at lowercase a,g of GGAGGUUAUUACAGAGUCUGUAUAgCUgUaCUCC; 3'-3' dT
B20: NX22358 (ssRNA)
RNA: B16 RNA
modifications: 2'-F C and U; 2'-OMe at lowercase a,g of GGAGGUUAUUACagagUCUGUAUAGCUGUACUCC; 3'-3' dT
B21: biased clone 26 (ssRNA)
RNA: GGGAGGACGAUGCGGGGUGGUUAUUACACAGUAUGUAUAGGUGUACCCCCAGACGACUCGCCCGA
modifications: 2'-F C and U
B22: biased clone 29 (ssRNA)
RNA: B21 RNA with U18A, G20U, C29G, A30C, A33C, G40U, G41C, C46G
modifications: 2'-F C and U
B23: biased clone 36 (ssRNA)
RNA: B21 RNA with U18A, U21A, C27U, C29G, A33C, G41C, G43A
modifications: 2'-F C and U
B24: biased clone 35 (ssRNA)
RNA: B21 RNA with U18G, G20A, U21G, C27A, C29G, A33C, G41C, G43U
modifications: 2'-F C and U
B25: biased clone 28 (ssRNA)
RNA: B21 RNA with G16A, U18G, G20A, U21A, C29G, G41C
modifications: 2'-F C and U
B26: biased clone 30 (ssRNA)
RNA: B21 RNA with G16U, U18A, C29G, A33C, G41C, C47U
modifications: 2'-F C and U
B27: biased clone 34 (ssRNA)
RNA: B21 RNA with C27G, C29G, A33C, G41C, G43C, C47G
modifications: 2'-F C and U

What follows are binders tested against T1, TGFβ2 (transforming growth factor beta …) (assay: filter). Details: chain copies: 2 (homodimer, stated).

Binder | binding result
B1 | binds
B2 | no binding
B3 | no binding
B4 | no binding
B5 | binds
B6 | binds
B7 | binds
B8 | no binding
B9 | no binding
B10 | no binding
B11 | no binding
B12 | no binding
B13 | no binding
B14 | no binding

The binders below were run against T1, TGFβ2 (transforming growth factor beta …) (assay: filter). Details: chain copies: 2 (inferred, homodimer).

Binder | binding signal
B15 | 0.3 x Kd of NX22284
B16 | 1 x Kd of NX22284
GGAGGUUAUUACAGAGUCUGUAUAGCUGUACUCC (ssRNA, 2'-F C and U; 2'-OMe at all purines except G20, A22, A24; 3'-3' dT) [NX22417] | 1 x Kd of NX22284
B17 | 2 x Kd of NX22284
B18 | 1 x Kd of NX22284
B19 | 1 x Kd of NX22284
B20 | 1 x Kd of NX22284

Biological target: T1, TGFβ2 (transforming growth factor beta …)
Experiment: filter
Details: chain copies: 2 (inferred, homodimer)
Remark: another data set of the same source

Binder | binding signal
B21 | 3.1 x Kd of 21a-21
B22 | 1 x Kd of 21a-21
B23 | 1.9 x Kd of 21a-21
B24 | 0.8 x Kd of 21a-21
B25 | 1 x Kd of 21a-21
B26 | 2.4 x Kd of 21a-21
B27 | 1.7 x Kd of 21a-21

What follows are binders tested against TGFβ1 (transforming growth factor beta 1) (Homo sapiens, UniProt P01137 SEQ:1-112) (assay: CD70 parent +++). Details: chain copies: 2 (homodimer, inferred).
Chain of TGFβ1 (transforming growth factor beta 1) (P01137 279-390): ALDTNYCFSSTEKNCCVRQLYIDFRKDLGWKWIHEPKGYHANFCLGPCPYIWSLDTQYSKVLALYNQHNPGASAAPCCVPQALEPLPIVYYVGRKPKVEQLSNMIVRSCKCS

Binder | binding result
GGGUGCCUUUUGCCUAGGUUGUGAUUUGUAACCUUCUGCCCA (ssRNA, 2'-OMe at 21, 23-24, 28) [ChD70-m3] | binds
GGGUGCCUUUUGCCUAGGUUGUGAUUUGUAACCUUCUGCCCA (ssRNA, 2'-OMe at 17, 21, 23-24, 28) [ChD70-m11] | binds
GGGUGCCUUUUGCCUAGGUUGUGAUUUGUAACCUUCUGCCCA (ssRNA, 2'-OMe at 2, 21, 23-24, 28) [ChD70-m6] | binds
GGGUGCCUUUUGCCUAGGUUGUGAUUUGUAACCUUCUGCCCA (ssRNA, 2'-OMe at 3, 21, 23-24, 28) [ChD70-m7] | binds
GGGUGCCUUUUGCCUAGGUUGUGAUUUGUAACCUUCUGCCCA (ssRNA, 2'-OMe at 1, 21, 23-24, 28) [ChD70-m5] | binds
GGGUGCCUUUUGCCUAGGUUGUGAUUUGUAACCUUCUGCCCA (ssRNA, 2'-OMe at 1-3, 16-18, 21, 23-24, 28, 30, 42; 3'-3' U cap) [ChD70-m18] | binds
GGGUGCCUUUUGCCUAGGUUGUGAUUUGUAACCUUCUGCCCA (ssRNA, 2'-OMe at 21, 23-24, 28, 38) [ChD70-m15] | binds
GGGUGCCUUUUGCCUAGGUUGUGAUUUGUAACCUUCUGCCCA (ssRNA, 2'-OMe at 21, 23-24, 28, 42) [ChD70-m16] | binds
GGGUGCCUUUUGCCUAGGUUGUGAUUUGUAACCUUCUGCCCA (ssRNA, 2'-OMe at 21, 23-24, 28, 31) [ChD70-m14] | binds
GGGUGCCUUUUGCCUAGGUUGUGAUUUGUAACCUUCUGCCCA (ssRNA, 2'-OMe at 18, 21, 23-24, 28) [ChD70-m12] | binds
GGGUGCCUUUUGCCUAGGUUGUGAUUUGUAACCUUCUGCCCA (ssRNA, 2'-OMe at 16, 21, 23-24, 28) [ChD70-m10] | binds
